Source: paper PMC7271519, “The DISC1 R264Q variant increases affinity for the dopamine D2 receptor and increases GSK3 activity” (Molecular Brain, 2020)
Where a chain is given by its changes, count along the chain named. In names and notes the source's numbering stands.

B1: GST-DISC1NT (human, wild type) (domain or fragment)
chain: MPGGGPQGAPAAAGGGGVSHRAGSRDCLPPAACFRRRRLARRPGYMRSSTGPGIGFLSPAVGTLFRFPGGVSGEESHHSESRARQCGLDSRGLLVRSPVSKSAAAPTVTSVRGTSAHFGIQLRGGTRLPDRLSWPCGPGSAGWQQEFAAMDSSETLDASWEAACSDGARRVRAAGSLPSAELSSNSCSPGCGPEVPPTPPGSHSAFTSSFSFIRLSLGSAGERGEAEGCPPSREAESHCQSPQEMGAKAASLDGPHEDPRCLSRPFSLLATRVSADLAQAARNSSRPERDMH
modifications: GST carrier omitted; limits not given, N-terminal head region taken from the UniProt feature 1-292
B2: GST-DISC1-NT R264Q (human) (domain or fragment)
chain: B1 chain with R264Q
modifications: GST carrier omitted; limits not given, N-terminal head region taken from the UniProt feature 1-292
B3: GST-DISC1NT (mouse, wild type) (domain or fragment)
chain: MQGGGPRGAPIHSPSHGADSGHGLPPAVAPQRRRLTRRPGYMRSTAGSGIGFLSPAVGMPHPSSAGLTGQQSQHSQSKAGQCGLDPGSHCQASLVGKPFLKSSLVPAVASEGHLHPAQRSMRKRPVHFAVHSKNDSRQSERLTGSFKPGDSGFWQELLSSDSFKSLAPSLDAPWNKGSRGLKTVKPLASPALNGPADIASLPGFQDTFTSSFSFIQLSLGAAGERGEAEGCLPSREAEPLHQRPQEMAAEASSSDRPHGDPRHLWTFSLHAAPGLADLAQVTRSSSRQSECGTV
modifications: GST carrier omitted; limits not given, N-terminal head region taken from the UniProt feature 1-294
B4: GST-Disc1-L100PNT (mouse) (domain or fragment)
chain: B3 chain with L100P
modifications: GST carrier omitted; limits not given, N-terminal head region taken from the UniProt feature 1-294

How the values were obtained:
[1] = target: T1, TAT-D2pep[K211-T225] peptide (UniProt P14416 211-225); assay: SPR; TAT-D2pep amine-coupled to carboxymethylated dextran chip (600 RU); human GST-DISC1NT or R264Q flowed at 0-4.0 uM; 25 °C; TBS-T (150 mM NaCl, 1 mM CaCl2, 1 mM MgCl2, 10 mM Tris pH 7.4, 0.005% P-20); 50 ul/min; equilibrium analysis; settings: both partners purified
T1 construct: dopamine D2 receptor, residues K211-T225; also called D2 [K211-T225]

[2] = target: T1, TAT-D2pep[K211-T225] peptide; assay: SPR; TAT-D2pep amine-coupled to carboxymethylated dextran chip; mouse GST-Disc1-L100PNT at 25-400 nM, GST-DISC1NT at 100 nM-1.6 uM; 25 °C; TBS-T pH 7.4; 50 ul/min; association 180 s, dissociation 300 s; KD from association and dissociation rates; settings: both partners purified

Binder | Kd [1] | Kd [2]
B1 | 653 ± 6 nM | 
B2 | 243 ± 3 nM | 
B3 |  | 760 ± 20 nM
B4 |  | 100 ± 2 nM
